# Values quoted from earlier work in publication PMC10461426.
# Read-outs that look alike come from different tables or passages of the source.
# Assays:
# IL-1R1 (Homo sapiens) [1] = molecular target: IL-1R1 (Homo sapiens) (UniProt P14778)
# IL-1R1 (Homo sapiens) [2] = molecular target: IL-1R1 (Homo sapiens) (UniProt P14778); remark: listed apart in the source
# IL-1R1 (Homo sapiens) [3] = molecular target: IL-1R1 (Homo sapiens) (UniProt P14778); remark: listed apart in the source
substance,measurement,setting,value
IL-1Ra (from UniProt P18510),Kd,IL-1R1 (Homo sapiens) [1],38 nM
IL-1beta (from UniProt P01584),Kd,IL-1R1 (Homo sapiens) [2],21 nM
IL-38 (from UniProt Q8WWZ1),Kd,IL-1R1 (Homo sapiens) [3],93 nM
